# Measurements published in publication PMC2120828 (The Journal of Cell Biology, 1996).
# B1: ADGal4-BOI1(731-980) (domain or fragment, S. cerevisiae)
# chain: EFKRSPSELTQKSTKSILPRSNAKKQQTSAFTEGIRSITAKESMQTADCSGWMSKKGTGAMGTWKQRFFTLHGTRLSYFTNTNDEKERGLIDITAHRVLPASDDDRLISLYAASLGKGKYCFKLVPPQPGSKKGLTFTEPRVHYFAVENKSEMKAWLSAIIKATIDIDTSVPVISSYATPTIPLSKAQTLLEEARLQTQLRDAEEEEGRDQFGWDDTQNKRNSNYPIEQDQFETSDYLESSAFEYPGGRL
# B2: ADGal4-BOI1(375-980) (domain or fragment, S. cerevisiae)
# chain: ILDMTEVPNLFADKDIFESPGRAPKPPSYPSPVQPPQSPSFNNRYTNNNARFPPQTTYPPKNKNPTVYSNGLIPNSSTSSDNSTGKFKFPAMNGHDSNSRKTTLTSATIPSINTVNTDESLPAISNISSNATSHHPNRNSVVYNNHKRTESGSSFVDLFNRISMLSPVKSSFDEEETKQPSKASRAVFDSARRKSSYGHSRDASLSEMKKHRRNSSILSFFSSKSQSNPTSPTKQTFTIDPAKMTSHSRSQSNSYSHARSQSYSHSRKHSLVTSPLKTSLSPINSKSNIALAHSETPTSSNNKEAVSQPSEGKHKHKHKHKSKHKHKNSSSKDGSSEEKSKKKLFSSTKESFVGSKEFKRSPSELTQKSTKSILPRSNAKKQQTSAFTEGIRSITAKESMQTADCSGWMSKKGTGAMGTWKQRFFTLHGTRLSYFTNTNDEKERGLIDITAHRVLPASDDDRLISLYAASLGKGKYCFKLVPPQPGSKKGLTFTEPRVHYFAVENKSEMKAWLSAIIKATIDIDTSVPVISSYATPTIPLSKAQTLLEEARLQTQLRDAEEEEGRDQFGWDDTQNKRNSNYPIEQDQFETSDYLESSAFEYPGGRL
# B3: ADGal4-BOI1(375-557) (domain or fragment, S. cerevisiae)
# chain: ILDMTEVPNLFADKDIFESPGRAPKPPSYPSPVQPPQSPSFNNRYTNNNARFPPQTTYPPKNKNPTVYSNGLIPNSSTSSDNSTGKFKFPAMNGHDSNSRKTTLTSATIPSINTVNTDESLPAISNISSNATSHHPNRNSVVYNNHKRTESGSSFVDLFNRISMLSPVKSSFDEEETKQPSKA
# How the values were obtained:
# Experiment in all cases: two-hybrid
# [1] = biological target: DBDlexA-Cdc42(D118A/C188S) (S. cerevisiae, UniProt P19073 1-191, D118A | C188S)
# [2] = biological target: DBDlexA-Cdc42(Q61L/C188S) (S. cerevisiae, UniProt P19073 1-191, Q61L | C188S)
# DBDlexA-Cdc42(C188S) = DBDlexA-Cdc42(C188S) (S. cerevisiae, UniProt P19073 1-191, C188S)
# Sequence of DBDlexA-Cdc42(C188S) (P19073 whole entry C188S): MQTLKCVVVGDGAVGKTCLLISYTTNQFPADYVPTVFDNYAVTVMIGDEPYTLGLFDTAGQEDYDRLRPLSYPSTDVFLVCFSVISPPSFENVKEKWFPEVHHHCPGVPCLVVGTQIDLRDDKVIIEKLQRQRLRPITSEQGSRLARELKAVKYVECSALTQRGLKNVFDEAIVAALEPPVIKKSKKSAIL
# Sequence of DBDlexA-Cdc42(D118A/C188S) (P19073 whole entry D118A/C188S): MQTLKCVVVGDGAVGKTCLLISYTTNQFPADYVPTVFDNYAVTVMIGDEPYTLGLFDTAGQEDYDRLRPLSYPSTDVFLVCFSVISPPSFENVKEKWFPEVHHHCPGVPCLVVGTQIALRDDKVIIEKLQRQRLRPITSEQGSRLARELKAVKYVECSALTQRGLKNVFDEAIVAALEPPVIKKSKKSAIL
# Sequence of DBDlexA-Cdc42(Q61L/C188S) (P19073 whole entry Q61L/C188S): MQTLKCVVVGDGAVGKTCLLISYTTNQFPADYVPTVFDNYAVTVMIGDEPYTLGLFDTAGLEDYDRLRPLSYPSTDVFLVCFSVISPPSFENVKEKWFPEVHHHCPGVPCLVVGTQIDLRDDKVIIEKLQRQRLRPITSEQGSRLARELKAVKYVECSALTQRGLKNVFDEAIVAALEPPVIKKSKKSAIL
Binder,beta-galactosidase activity [1],beta-galactosidase activity [2],beta-galactosidase activity (DBDlexA-Cdc42(C188S))
B1,< 0.02,230,380
B2,< 0.02,400,
B3,< 0.02,,
